In patent publication US20150079113A1 (MIT, published 2015):

B4: α5 integrin (endogenous) (receptor, mouse, UniProt P11688 45-1053, looked up)
chain: FNLDAEAPAVLSGPPGSLFGFSVEFYRPGRDGVSVLVGAPKANTSQPGVLQGGAVYVCPWGTSPIQCTTIQFDSKGSRILESSLYSAKGEEPVEYKSLQWFGATVRAHGSSILACAPLYSWRTEKDPQNDPVGTCYLSTENFTRILEYAPCRSDFGSAAGQGYCQGGFSAEFTKTGRVVLGGPGSYFWQGQILSATQEQISESYYPEYLINPVQGQLQTRQASSVYDDSYLGYSVAVGEFSGDDTEDFVAGVPKGNLTYGYVTVLNGSDIHSLYNVSGEQMASYFGYAVAATDTNGDGLDDLLVGAPLLMERTADGRPQEVGRVYIYLQRPAGIDPTPTLTLTGQDEFSRFGSSLTPLGDLDQDGYNDVAIGAPFGGEAQQGVVFIFPGGPGGLSTKPSQVLQPLWAAGRTPDFFGSALRGGRDLDGNGYPDLIVGSFGVDKALVYRGRPIISASASLTIFPSMFNPEERSCSLEGNPVSCINLSFCLNASGKHVPNSIGFEVELQLDWQKQKGGVRRALFLTSKQATLTQTLLIQNGAREDCREMKIYLRNESEFRDKLSPIHIALNFSLDPKAPMDSHGLRPVLHYQSKSRIEDKAQILLDCGEDNICVPDLQLDVYGEKKHVYLGDKNALNLTFHAQNLGEGGAYEAELRVTAPLEAEYSGLVRHPGNFSSLSCDYFAVNQSRQLVCDLGNPMKAGTSLWGGLRFTVPHLQDTKKTIQFDFQILSKNLNNSQSNVVSFPLSVEAQAQVSLNGVSKPEAVIFPVSDWNPQDQPQKEEDLGPAVHHVYELINQGPSSISQGVLELSCPQALEGQQLLYVTKVTGLSNCTSNYTPNSQGLELDPETSPHHLQKREAPGRSSTASGTQVLKCPEAKCFRLRCEFGPLHRQESRSLQLHFRVWAKTFLQREYQPFSLQCEAVYEALKMPYQILPRQLPQKKLQVATAVQWTKAEGSNGVPLWIIILAILFGLLLLGLLIYVLYKLGFFKRSLPYGTAMEKAQLKPPATSDA
notes: whole, on cells; Present in cells as the α5β1 heterodimer; detected by immunofluorescence or immunoprecipitated from lysates; also called endogenous α5; alpha5 integrin

Tests used:
α5 integrin (endogenous) [1] = biological target: B4; experiment: cell-based or functional assay
α5 integrin (endogenous) [2] = biological target: B4; experiment: recruitment of α5 to mitochondria in cells expressing FP4-Mito, immunofluorescence
Procedure: Microscopy—Cells were fixed in 4% paraformaldehyde in PHEM buffer warmed to 37° C. for 20 minutes. Cells were permeabilized in 0.2% TX-100 and blocked in 10% Donkey Serum. […] (Abcam ab25247), integrin αv [RMV-7] (Abcam ab63490), integrin α6 [GoH3] […] F-actin was stained with AlexaFluor Phalloidin (Invitrogen). Z series of images were taken on an Olympus microscope with a 60× plan apo objective. Images were deconvolved using Deltavision Softworx software.

α5 integrin (endogenous) [3] = biological target: B4; experiment: recruitment to mitochondria in cells expressing FP4-Mito, immunofluorescence
Procedure: Microscopy—Cells were fixed in 4% paraformaldehyde in PHEM buffer warmed to 37° C. for 20 minutes. Cells were permeabilized in 0.2% TX-100 and blocked in 10% Donkey Serum. […] (Abcam ab25247), integrin αv [RMV-7] (Abcam ab63490), integrin α6 [GoH3] […] F-actin was stained with AlexaFluor Phalloidin (Invitrogen).

Purified GST = biological target: T1, Purified GST (UniProt P08515 1-218 = GST); experiment: GST pull-down with purified proteins, western blot with anti-His
T1 construct: Control bait in the pull-down assay
Procedure: After incubation, GST- and GST-α5 beads containing the His-LERER bound fraction were recovered and analyzed by western blotting along with aliquots of unbound protein from the supernatant.
Binding Assays: GST-α5 integrin constructs and His-tagged variants of the LERER repeat region were expressed and purified from E. Coli. 10 nM α5 integrin cytoplasmic tail was immobilized on Glutathione beads and incubated for 1 hour, 4° C. with 200 nM His-LERER variants at constant agitation in PBS with 0.1% TritonX-100 and 2 mM βME. Beads were washed three times, and proteins were eluted in sample buffer, and assayed by western blot.

[4] = biological target: p34 subunit of Arp2/3 (endogenous) (UniProt Q9CVB6 1-300); experiment: α5 immunoprecipitation from NIH3T3 cell lysates, western blot
Source text: To determine if endogenously expressed Mena and α5 integrin form complexes within cells, α5 integrin was immunoprecipitated from NIH3T3 cell lysates followed by Western blot analysis (FIG. 2B).
Western Blotting/Immunoprecipitation. Standard procedures were used for protein electrophoresis, western blotting and immunoprecipitations. Western blots were developed using HRP secondary antibodies and ECL reagent (Amersham). […] Beads were washed three times in lysis buffer, and proteins were eluted in sample buffer.

T1 sequence (P08515 whole entry): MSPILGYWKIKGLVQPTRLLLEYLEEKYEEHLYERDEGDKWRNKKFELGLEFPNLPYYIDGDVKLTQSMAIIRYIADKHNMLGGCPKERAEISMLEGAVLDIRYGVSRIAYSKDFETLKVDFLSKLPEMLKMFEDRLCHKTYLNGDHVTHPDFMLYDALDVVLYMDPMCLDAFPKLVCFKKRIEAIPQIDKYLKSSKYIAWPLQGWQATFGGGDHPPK

B1: GFP-MenaΔLERER (other, UniProt Q03173-3 1-541, looked up)
chain: MSEQSICQARAAVMVYDDANKKWVPAGGSTGFSRVHIYHHTGNNTFRVVGRKIQDHQVVINCAIPKGLKYNQATQTFHQWRDARQVYGLNFGSKEDANVFASAMMHALEVLNSQEAGPTLPRQNSQLPAQVQNGPSQEELEIQRRQLQEQQRQKERMSNAAAPASAETPLNPELGDSSASEPGLQAASQPAESPTPQGLVLGPPAPPPPPPLPSGPAYASALPPPPGPPPPPPLPSTGPPPPPPPPPPLPNQAPPPPPPPPAPPLPASGIFSGSTSEDNRPLTGLAAAIAGAKLRKVSRVEDGSFPGGGNTGSVSLASSKADAGRGNGPLPLGGSGLMEEMSALLARRRRIAEKGSTIETEQKEDRNEDAEPITAKAPSTSTPEPTRKPWERTNTMNGSKSPVISRPKSTPSSQPSANGVQTEGLDYDRLKQDILDEMRKELAKLKEELIDAIRQELSKSNTA
notes: Expressed in MVD7 cells; also called Mena mutant lacking the LERER repeat; not shown: GFP tag
t1/2 of fluorescence recovery (FRAP) in nascent, peripheral adhesions, cells plated for 30 minutes on FN (α5 integrin (endogenous) [1]): 11.9 s
binding result (α5 integrin (endogenous) [2]): no binding

B2: β1 integrin (endogenous) (receptor, mouse, UniProt P09055 21-798, looked up)
chain: QTDKNRCLKANAKSCGECIQAGPNCGWCTNTTFLQEGMPTSARCDDLEALKKKGCQPSDIENPRGSQTIKKNKNVTNRSKGMAEKLRPEDITQIQPQQLLLKLRSGEPQKFTLKFKRAEDYPIDLYYLMDLSYSMKDDLENVKSLGTDLMNEMRRITSDFRIGFGSFVEKTVMPYISTTPAKLRNPCTSEQNCTSPFSYKNVLSLTDRGEFFNELVGQQRISGNLDSPEGGFDAIMQVAVCGSLIGWRNVTRLLVFSTDAGFHFAGDGKLGGIVLPNDGQCHLENNVYTMSHYYDYPSIAHLVQKLSENNIQTIFAVTEEFQPVYKELKNLIPKSAVGTLSGNSSNVIQLIIDAYNSLSSEVILENSKLPDGVTINYKSYCKNGVNGTGENGRKCSNISIGDEVQFEISITANKCPNKESETIKIKPLGFTEEVEVVLQFICKCNCQSHGIPASPKCHEGNGTFECGACRCNEGRVGRHCECSTDEVNSEDMDAYCRKENSSEICSNNGECVCGQCVCRKRDNTNEIYSGKFCECDNFNCDRSNGLICGGNGVCRCRVCECYPNYTGSACDCSLDTGPCLASNGQICNGRGICECGACKCTDPKFQGPTCETCQTCLGVCAEHKECVQCRAFNKGEKKDTCAQECSHFNLTKVESREKLPQPVQVDPVTHCKEKDIDDCWFYFTYSVNGNNEAIVHVVETPDCPTGPDIIPIVAGVVAGIVLIGLALLLIWKLLMIIHDRREFAKFEKEKMNAKWDTGENPIYKSAVTTVVNPKYEGK
notes: whole, on cells
binding result (α5 integrin (endogenous) [3]): binds

B3: Purified His-tagged LERER repeat protein (His-LERER) (other, mouse, UniProt Q03173 175-252, looked up)
chain: LERERMERERLERERLERERLERERLEQEQLERQRQEREHVERLERERLERLERERQERERERLEQLEREQVEWERER
notes: domain: LERER repeat; Expressed and purified from E. coli (pQE80L-His-LERER); also called LERER repeat region of Mena; not shown: His tag of the pQE80L vector
binding result (Purified GST): no binding (tested: 200 nM His-LERER variants)

B4
binding result [4]: no binding

B5: GFP-tagged EVH1 domain of Mena (other, UniProt Q03173 1-112, looked up)
chain: MSEQSICQARAAVMVYDDANKKWVPAGGSTGFSRVHIYHHTGNNTFRVVGRKIQDHQVVINCAIPKGLKYNQATQTFHQWRDARQVYGLNFGSKEDANVFASAMMHALEVLN
notes: domain: EVH1 domain; not shown: GFP tag
binding result (α5 integrin (endogenous) [2]): no binding
